Measured values published in PMC3039075 (Nitric oxide : biology and chemistry / official journal of …, 2010).

Target: the molecule itself
Experiment: non-reducing SDS-PAGE and Western blot

B1: matrix metalloproteinase-9 (MMP-9) (enzyme)
chain: not shown
stoichiometry N: 2
